Source: patent publication US20050272077

What was measured:
[1] = biological target: GST-p38 MAP kinase (wild-type, TGY), Q16539
[2] = biological target: mutated GST-p38 MAP kinase (AGF), Q16539
Sequence of mutated GST-p38 MAP kinase (AGF), Q16539 (Q16539 whole entry, looked up, change not shown): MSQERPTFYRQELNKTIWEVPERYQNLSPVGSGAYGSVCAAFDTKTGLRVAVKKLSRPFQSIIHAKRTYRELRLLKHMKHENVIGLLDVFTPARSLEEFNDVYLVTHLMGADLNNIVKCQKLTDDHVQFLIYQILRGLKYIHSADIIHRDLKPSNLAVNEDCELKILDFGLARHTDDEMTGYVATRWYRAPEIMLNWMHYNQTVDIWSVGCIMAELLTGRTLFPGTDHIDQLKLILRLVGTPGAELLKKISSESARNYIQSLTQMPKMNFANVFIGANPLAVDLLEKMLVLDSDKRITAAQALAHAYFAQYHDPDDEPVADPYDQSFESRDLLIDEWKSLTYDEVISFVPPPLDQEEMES

Sequence of GST-p38 MAP kinase (wild-type, TGY), Q16539 (Q16539 whole entry): as the sequence (Q16539 whole entry, looked up, change not shown) above
Sequence of GST-ERK2 [GST: P08515] (P08515 whole entry, looked up): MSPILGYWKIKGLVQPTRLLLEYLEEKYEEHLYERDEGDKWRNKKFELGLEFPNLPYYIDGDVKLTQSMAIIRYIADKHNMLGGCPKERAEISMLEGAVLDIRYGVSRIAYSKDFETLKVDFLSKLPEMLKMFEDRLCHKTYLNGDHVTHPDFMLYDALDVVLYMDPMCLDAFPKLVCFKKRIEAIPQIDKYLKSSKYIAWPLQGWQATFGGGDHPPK
Sequence of GST-JNK1, P45983 (P45983 other isoform, or with tags, fused parts or gaps): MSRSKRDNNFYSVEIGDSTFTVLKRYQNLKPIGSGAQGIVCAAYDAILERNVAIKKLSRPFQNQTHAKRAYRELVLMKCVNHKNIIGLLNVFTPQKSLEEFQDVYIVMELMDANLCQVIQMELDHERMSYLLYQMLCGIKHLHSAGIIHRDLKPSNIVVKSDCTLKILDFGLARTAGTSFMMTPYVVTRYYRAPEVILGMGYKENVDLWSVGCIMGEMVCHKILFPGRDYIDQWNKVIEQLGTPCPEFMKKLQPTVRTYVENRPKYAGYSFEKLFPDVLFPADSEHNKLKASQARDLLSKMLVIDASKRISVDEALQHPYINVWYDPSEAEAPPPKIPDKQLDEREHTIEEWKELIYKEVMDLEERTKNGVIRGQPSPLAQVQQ

B1: GST-MKK3 (protein)
chain: MSKPPAPNPTPPRNLDSRTFITIGDRMFEVEADDLVTISELGRGAYGVVEKVRHAQSGTIMAVKRIRATVNSQEQKRLLMDLDINMRTVDCFYTVTFYGALFREGDVWICMELMDTSLDKFYRKVLDKNMTIPEDILGEIAVSIVRALEHLHSKLSVIHRDVKPSNVLINKEGHVKMCDFGISGYLVDSVAKTMDAGCKPYMAPERINPELNQKGYNVKSDVWSLGITMIEMAILRFPYESWGTPFQQLKQVVEEPSPQLPADRFSPEFVDFTAQCLRKNPAERMSYLELMEHPFFTLHKTKKTDIAAFVKKILGEDS
**Q.** What does the source list for B1?
**A.** phosphorylation of the substrate protein (in vitro kinase assay, [γ-32P]ATP, SDS-PAGE, autoradiography) (GST-ERK2 [GST: P08515]): MKK3 phosphorylated p38 MAP kinase, but not JNK1 or ERK2; phosphorylation of the substrate protein (in vitro kinase assay, [γ-32P]ATP, SDS-PAGE, autoradiography) (GST-JNK1, P45983): MKK3 phosphorylated p38 MAP kinase, but not JNK1 or ERK2; phosphorylation of the substrate protein (in vitro kinase assay, SDS-PAGE, autoradiography) [1]: Only phosphorylation of wild-type p38 was observed; phosphorylation of the substrate protein (in vitro kinase assay, [γ-32P]ATP, SDS-PAGE, autoradiography) [1]: MKK3 phosphorylated p38 MAP kinase, but not JNK1 or ERK2; phosphorylation of the substrate protein (in vitro kinase assay, SDS-PAGE, autoradiography) [2]: Only phosphorylation of wild-type p38 was observed
